Where a chain is given by its changes, count along the chain named. In names and notes the source's numbering stands.
B1: BsMenD (MenD, SEPHCHC synthase, EC 2.2.1.9) (Bacillus subtilis subsp. subtilis str. 168; I489A) (protein)
chain: MTVNPITHYIGSFIDEFALSGITDAVVCPGSRSTPLAVLCAAHPDISVHVQIDERSAGFFALGLAKAKQRPVLLICTSGTAAANFYPAVVEAHYSRVPIIVLTADRPHELREVGAPQAINQHFLFGNFVKFFTDSALPEESPQMLRYIRTLASRAAGEAQKRPMGPVHVNVPLREPLMPDLSDEPFGRMRTGRHVSVKTGTQSVDRESLSDVAEMLAEAEKGMIVCGELHSDADKENIIALSKALQYPILADPLSNLRNGVHDKSTVIDAYDSFLKDDELKRKLRPDVVIRFGPMPVSKPVFLWLKDDPTIQQIVIDEDGGWRDPTQASAHMIHCNASVFAEEIMAGLTAATRSSEWLEKWQFVNGRFREHLQTISSEDVSFEGNLYRILQHLVPENSSLFVGNSMPIRDVDTFFEKQDRPFRIYSNRGANGIDGVVSSAMGVCEGTKAPVTLVIGDLSFYHDLNGLLAAKKLGIPLTVILVNNDGGGAFSFLPQASEKTHFEDLFGTPTGLDFKHAAALYGGTYSCPASWDEFKTAYAPQADKPGLHLIEIKTDRQSRVQLHRDMLNEAVREVKKQWEL
notes: full length (Thr2-Leu580 seen in crystal); N-terminal hexa-His tag with TEV site kept (24 extra residues); E. coli BL21(DE3); dimer peak used (tetramer in crystal); active site formed by two subunits
B2: BsMenD (MenD, SEPHCHC synthase, EC 2.2.1.9) (Bacillus subtilis subsp. subtilis str. 168) (protein)
chain: B1 chain with A489I
notes: as for B1
B3: BsMenD (MenD, SEPHCHC synthase, EC 2.2.1.9) (Bacillus subtilis subsp. subtilis str. 168; R409A) (protein)
chain: B1 chain with R409A, A489I
notes: as for B1
B4: BsMenD (MenD, SEPHCHC synthase, EC 2.2.1.9) (Bacillus subtilis subsp. subtilis str. 168; R32A) (protein)
chain: B1 chain with R32A, A489I
notes: as for B1
B5: BsMenD (MenD, SEPHCHC synthase, EC 2.2.1.9) (Bacillus subtilis subsp. subtilis str. 168; R106A) (protein)
chain: B1 chain with R106A, A489I
notes: as for B1
B6: BsMenD (MenD, SEPHCHC synthase, EC 2.2.1.9) (Bacillus subtilis subsp. subtilis str. 168; K299A) (protein)
chain: B1 chain with K299A, A489I
notes: as for B1
B7: BsMenD (MenD, SEPHCHC synthase, EC 2.2.1.9) (Bacillus subtilis subsp. subtilis str. 168; L493A) (protein)
chain: B1 chain with A489I, L493A
notes: as for B1
B8: BsMenD (MenD, SEPHCHC synthase, EC 2.2.1.9) (Bacillus subtilis subsp. subtilis str. 168; F490A) (protein)
chain: B1 chain with A489I, F490A
notes: as for B1
B9: BsMenD (MenD, SEPHCHC synthase, EC 2.2.1.9) (Bacillus subtilis subsp. subtilis str. 168; R428A) (protein)
chain: B1 chain with R428A, A489I
notes: as for B1

What follows are proteins tested on C=C(O[C@H]1C=CC=C(C(=O)O)[C@@H]1O)C(=O)O (assay: purified protein). Conditions: 50 mM Tris-HCl pH 7.8, 20 mM NaCl, 5 mM MgSO4, 23 °C, co-substrate α-ketoglutarate.
Assay type: biochemical, Bacillus subtilis
With B1 the Km was 27 ± 1 µM, the kcat was 0.095 ± 0.00333 s⁻¹ and the kcat/Km was 3500 ± 167 M⁻¹ s⁻¹. In the case of B2, the Km is reported as 1.1 ± 0.2 µM, the kcat is reported as 0.317 ± 0.0167 s⁻¹ and the kcat/Km is reported as 317000 ± 50000 M⁻¹ s⁻¹. B3 gave a Km of 8.5 ± 1.2 µM, a kcat of 0.0233 ± 0.00167 s⁻¹ and a kcat/Km of 2670 ± 333 M⁻¹ s⁻¹. B4 showed a Km of 49 ± 7 µM, a kcat of 0.183 ± 0.0167 s⁻¹ and a kcat/Km of 3670 ± 167 M⁻¹ s⁻¹. B5 gave a Km of 41 ± 4 µM, a kcat of 0.0117 ± 0.00333 s⁻¹ and a kcat/Km of 300 ± 167 M⁻¹ s⁻¹. With B6 the Km was 8.4 ± 1.2 µM, the kcat was 0.417 ± 0.0333 s⁻¹ and the kcat/Km was 50000 ± 5000 M⁻¹ s⁻¹. B7 was tested, and the Km was 39 ± 1 µM, the kcat was 0.317 ± 0.0167 s⁻¹ and the kcat/Km was 8170 ± 500 M⁻¹ s⁻¹.

These proteins were tested on O=C(O)CCC(=O)C(=O)O (assay: purified protein). Conditions: 50 mM Tris-HCl pH 7.8, 20 mM NaCl, 5 mM MgSO4, 23 °C, co-substrate isochorismate.
Assay type: biochemical, Bacillus subtilis
B1 gave a Km of 346 ± 10 µM. In the case of B8, the Km is reported as 274 ± 12 µM, the kcat is reported as 0.0183 ± 0.00167 s⁻¹ and the kcat/Km is reported as 65 ± 3.33 M⁻¹ s⁻¹. For B2, the Km was 22 ± 5 µM, the kcat was 0.233 ± 0.0333 s⁻¹ and the kcat/Km was 10700 ± 5000 M⁻¹ s⁻¹. Work on B3 yielded a Km of 159 ± 18 µM. B9 gave a Km of 514 ± 54 µM, a kcat of 0.0567 ± 0.00333 s⁻¹ and a kcat/Km of 117 ± 16.7 M⁻¹ s⁻¹.

Source: article PMC2914249, “Structure and Reactivity of Bacillus subtilis MenD Catalyzing the First Committed Step in Menaquinone Biosynthesis” (Journal of Molecular Biology, 2010)
